Results from article PMC5462532.
pKd: −log10 of the molar value.

Experiments:
[1] = target: UbcH7 (C17S, C86K, C137S)∼Ub conjugate (for ITC) (human) (UniProt P68036); assay: ITC; 250-300 μM RING1 constructs in the syringe, 25-30 μM E2 or E2∼Ub in the cell; 293 K; 25 mM Hepes pH 7.5, 150 mM NaCl, 0.5 mM TCEP; 1:1 fit; repeated twice, averages
[2] = target: UbcH7 (wild type, for ITC) (human) (UniProt P68036); assay: as above
[3] = target: HHARI of the HHARI/UbcH7 complex analysed by SEC-MALS (human) (UniProt Q9Y4X5); assay: SEC-MALS; HHARI/UbcH7 complex at 1.5 mg/ml in 25 mM MOPS, 150 mM NaCl, pH 7.5; Superose 6 Increase 3.2/300; room temperature

Row | pKd [1] | dH [1] | stoichiometry N [1] | pKd [2] | dH [2] | stoichiometry N [2] | stoichiometry N [3] | Substance
1 | 6.94 | 3.7 kcal/mol | 1 | 6.53 | 4.3 kcal/mol | 1 | – | HHARI RING1 (aa 177-270), wild type (from UniProt Q9Y4X5 177-270) (domain or fragment)
2 | – | – | – | – | – | – | 1 | UbcH7 of the HHARI/UbcH7 complex analysed by SEC-MALS (from UniProt P68036 1-154) (enzyme)
